This passage reports stoichiometry N results from PMC11162425.

Assay [1] has as its target Lcl-N GFP fusion (N-GFP) (Legionella pneumophila strain 130b). In words: SEC.
For assay [2], the target named is Legionella collagen-like protein (Lcl) from L. pneumophila strain 130b, intact recombinant (residues 1-401) (Legionella pneumophila strain 130b). In words: SEC-MALS. In general terms: In gel filtration, larger molecules generally elute earlier.

In turn, “Lcl-N GFP fusion (N-GFP) (domain or fragment)” showed a stoichiometry N in assay [1] of 3.

On to “Legionella collagen-like protein (Lcl) from L. pneumophila strain 130b, intact recombinant (residues 1-401) (natural protein)”, for which the stoichiometry N in assay [2] was 3.

As a reminder, the stoichiometry N is the number of molecules, sites or subunits per partner or assembly.
